Measured values as given in US20040167074A1, “Therapeutic applications of mFLINT polypeptides” (priority 1998, published 2004).

Experiments:
CD40 L = molecular target: T1, CD40 L (Homo sapiens, UniProt P29965); experiment: Dot blot binding of mFLINT to TNF ligands
T1 construct: purchased
T1 sequence (P29965 113-261 limits assumed): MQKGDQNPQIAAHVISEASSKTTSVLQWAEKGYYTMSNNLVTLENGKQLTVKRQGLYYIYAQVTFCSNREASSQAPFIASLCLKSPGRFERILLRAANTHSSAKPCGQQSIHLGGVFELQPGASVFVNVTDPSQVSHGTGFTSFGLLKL

FasL = molecular target: T2, FasL (Homo sapiens, UniProt P48023); experiment: BiaCore real-time biomolecular interaction analysis (surface plasmon resonance); type: binding
T2 construct: purchased Kamiya Biomedical Company
T2 sequence (P48023 130-281 limits assumed): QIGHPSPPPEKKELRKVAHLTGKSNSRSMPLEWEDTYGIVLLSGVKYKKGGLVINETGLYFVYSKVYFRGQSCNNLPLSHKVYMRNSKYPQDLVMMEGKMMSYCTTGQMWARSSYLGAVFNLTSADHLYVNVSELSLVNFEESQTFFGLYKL
Source text: FLINT-Fas L binding may be confirmed and specifics of binding determined (e.g., kinetics, specificity, affinity, cooperativity, relative binding pattern, concentration) using real-time biomolecular interaction analysis. This technology confers the ability to study biomolecular interactions in real time, without labeling any of the interactants. In particular, it takes advantage of the optical phenomenon surface plasmon resonance, and detection depends on changes in the mass concentration of macromolecules at the biospecific interface. Interactions are followed in real time, so that kinetic information is readily derived. In many cases, investigations can be performed without prior purification of components.
Measurements are accomplished using a BiaCore 2000 instrument. The instrument, accompanying chips, immobilization and maintenance kits and buffers are obtained from Biacore AB, Rapsgatan 7, S-754 50 Uppsala, Sweden. FasL is obtained from Kamiya Biomedical Company, 910 Industry Drive, Seattle, Wash. 98188, Guanidine Isothiocyanate Solution from GibcoBRL, and mFLINT is prepared as in Examples 8 and 9.
Experiments using immobilized FasL loaded with a solution containing mFLINT. […] This is explained by the fact that FasL is a trimer, yet here FasL monomer was bound. Further experiments utilized bound FLINT with FasL in solution, allowing for trimer formation. […] This observations indicate that FLINT should effectively compete with Fas for FasL binding, which likely explains the therapeutic benefit observed in experiments detailed below.

[1] = molecular target: T3, Fas-FasLigand interaction (Homo sapiens, UniProt P48023); experiment: ELISA: FLINT prevents Fas-FasLigand interaction; type: binding; conditions: hFasLigand 30 ng, mrecFas 100 ng adsorbed
T3 sequence (P48023 103-281 limits assumed): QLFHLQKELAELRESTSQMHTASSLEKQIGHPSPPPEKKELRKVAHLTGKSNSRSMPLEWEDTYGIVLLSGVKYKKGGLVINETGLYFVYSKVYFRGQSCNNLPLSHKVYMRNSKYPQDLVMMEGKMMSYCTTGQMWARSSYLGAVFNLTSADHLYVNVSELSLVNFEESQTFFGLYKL
Procedure: As above, mrecFas (100 ng) was adsorbed on to ELISA plate. Again the plate was blocked by TBST and 0.1% Gelatine. […] As before, after washing of the plate, anti-mouse-Abs-HRP (3000 dilution, Bio-Rad) was added to the wells. After washings, visualization enzymatic reaction using ABTS as a substrate was performed.

hFasLigand (Flag-tagged) = molecular target: T4, hFasLigand (Flag-tagged) (Homo sapiens, UniProt P48023); experiment: ELISA: FasLigand binding to adsorbed FLINT and Fas; conditions: 100 ng receptor adsorbed
T4 sequence (P48023 103-281 limits assumed): T3 sequence (P48023 103-281 limits assumed)
Procedure: FLINT and Fas (100 ng of each) were adsorbed on to an ELISA plate. hFasLigand (Flag-tagged) was added at different concentrations to a maximum concentration of 300 ng down to 0.1 ng on TBST plus a 0.1% solution containing 1 microgram/ml of M2 Abs. After washing of the plate, anti-mouse-Abs-HRP (1:3000 dilution, Bio-Rad) was added to the wells. After washings, visualization enzymatic reaction using ABTS as a substrate was performed.

[2] = test system: Mouse T cell hybridoma cells (LTT cells); experiment: Murine FasL-mediated apoptosis of LTT cells (MTS cytotoxicity assay); type: cell-based; conditions: test agent 1 μg/ml
Procedure: LTT,2,14,11 cells (LTT cells), see Glasebrook, Eur.J.Immunol. 17: 1561-65 (1987), were used in this Annexin V assay. On the first day, a 96 well plate was coated with anti-CD3 (2C11) at a serial dilutions. On the second day, 100,000 LTT cells were added, in 50 μl of medium per well, along with 50 μl of medium to the control wells and 50 μl of medium containing:
The same steps as in Example 16 were followed on Day 1 and Day 2. On Day 3 20 ul of MTS solution (Promega) was added to the cells which were then incubated at 37° C. for 2 hours. Using a plate reader, the absorbances at 490 nm wavelength were collected.

bone marrow cells = experiment: Viable cell count of bone marrow cells from 5-FU treated mice after cytokine expansion; type: cell-based, mouse; conditions: FIG. 10; 3 days with SCF and IL-6; mFLINT 1 ug/ml, anti-FasL 1 ug/ml, FasL 0.15 ug/ml; control 3,300
Source text: Following a 3 day in vitro expansion period with cytokines, viable cells are counted and used to set up a CFU assay. If mFLINT or anti-FasL antibody protects progenitor cells from apoptosis, one would expect a greater number of colonies in these groups for the CFU assay. […] The values were: control cells: 3,300; FasL-treated cells: 3,000; anti-FasL-treated cells: 4,200; mFLINT-treated cells: 4,900.

B1: mFLINT: mature FLINT without leader peptide (FIG. 3), soluble TNFR superfamily member, made according to Examples 8 and 9 (protein)
chain: VAETPTYPWRDAETGERLVCAQCPPGTFVQRPCRRDSPTTCGPCPPRHYTQFWNYLERCRYCNVLCGEREEEARACHATHNRACRCRTGFFAHAGFCLEHASCPPGAGVIAPGTPSQNTQCQPCPPGTFSASSSSSEQCQPHRNCTALGLALNVPGSSSHDTLCTSCTGFPLSTRVPGAEECERAVIDFVAFQDISIKRLQRLLQALEAPEGWGPTPRAGRAALQLKLRRRLTELLGAQDGALLVRLLQALRVARMPGLERSVRERFLPVH
modifications: glycosylated
**Q.** Which “binding in dot blot” value (CD40 L) does the source give for B1 here?
**A.** No appreciable binding

**Q.** And the “KD for FLINT-FasL relative to immobilized-FasL experiment” value (FasL; bound FLINT with FasL in solution, allowing trimer formation)?
**A.** 2 orders of magnitude better

**Q.** And the Kd (FasL; immobilized FasL (monomer bound), analyte in solution)?
**A.** 113 nM

**Q.** What about the “OD, 405 nM” value ([1]; FLINT 1 ng) of the same molecule?
**A.** 0.36

**Q.** What about the “OD, 405 nM” value ([1]; FLINT 5 ng) of the same molecule?
**A.** 0.36

**Q.** What about the “OD, 405 nM” value ([1]; FLINT 10 ng) of the same molecule?
**A.** 0.36

**Q.** What about the “OD, 405 nM” value ([1]; FLINT 50 ng) of the same molecule?
**A.** 0.28

**Q.** And the “OD, 405 nM” value ([1]; FLINT 100 ng)?
**A.** 0.18

**Q.** And the “OD, 405 nM” value ([1]; FLINT 500 ng)?
**A.** 0.06

**Q.** And the “OD, 405 nM” value (hFasLigand (Flag-tagged); FasL 0.1 ng)?
**A.** 0

**Q.** What about the “OD, 405 nM” value (hFasLigand (Flag-tagged); FasL 0.5 ng) of the same molecule?
**A.** 0

**Q.** What about the “OD, 405 nM” value (hFasLigand (Flag-tagged); FasL 1.0 ng) of the same molecule?
**A.** .02

**Q.** And the “OD, 405 nM” value (hFasLigand (Flag-tagged); FasL 5.0 ng)?
**A.** .04

**Q.** And the “OD, 405 nM” value (hFasLigand (Flag-tagged); FasL 10 ng)?
**A.** .12

**Q.** And the “OD, 405 nM” value (hFasLigand (Flag-tagged); FasL 50 ng)?
**A.** .28

**Q.** And the “OD, 405 nM” value (hFasLigand (Flag-tagged); FasL 100 ng)?
**A.** .78

**Q.** What about the “MTS absorbance at 490 nm” value ([2]; Anti CD3 conc. 0 μg/ml) of the same molecule?
**A.** 1.691

**Q.** What about the “MTS absorbance at 490 nm” value ([2]; Anti CD3 conc. 0.0014 μg/ml) of the same molecule?
**A.** 1.923

**Q.** What about the “MTS absorbance at 490 nm” value ([2]; Anti CD3 conc. 0.004 μg/ml) of the same molecule?
**A.** 1.982

**Q.** And the “MTS absorbance at 490 nm” value ([2]; Anti CD3 conc. 0.012 μg/ml)?
**A.** 2.006

**Q.** What about the “MTS absorbance at 490 nm” value ([2]; Anti CD3 conc. 0.037 μg/ml) of the same molecule?
**A.** 2.006

**Q.** And the “MTS absorbance at 490 nm” value ([2]; Anti CD3 conc. 0.11 μg/ml)?
**A.** 1.874

**Q.** And the “MTS absorbance at 490 nm” value ([2]; Anti CD3 conc. 0.33 μg/ml)?
**A.** 1.671

**Q.** What about the “MTS absorbance at 490 nm” value ([2]; Anti CD3 conc. 1 μg/ml) of the same molecule?
**A.** 1.581

**Q.** What about the “bone marrow cell count” value (bone marrow cells) of the same molecule?
**A.** 4,900 ×1000
